From paper PMC5319863 (Nature, 2016)
Positions count from the first letter of the chain named. Names may count otherwise. Values belong to the binder of their own block, whether it stands above or below them.

Assays:
[1] = molecular target: T1, human Izumo1_(22-254), wild type (human, UniProt Q8IYV9-1 22-254); assay: BLI
E71K Izumo1_(22-254) = E71K Izumo1_(22-254) (human, UniProt Q8IYV9-1 22-254, E71K); assay: BLI
E71A Izumo1_(22-254) = E71A Izumo1_(22-254) (human, UniProt Q8IYV9-1 22-254, E71A); assay: BLI
Sequence of E71A Izumo1_(22-254) (Q8IYV9 22-254 E71A): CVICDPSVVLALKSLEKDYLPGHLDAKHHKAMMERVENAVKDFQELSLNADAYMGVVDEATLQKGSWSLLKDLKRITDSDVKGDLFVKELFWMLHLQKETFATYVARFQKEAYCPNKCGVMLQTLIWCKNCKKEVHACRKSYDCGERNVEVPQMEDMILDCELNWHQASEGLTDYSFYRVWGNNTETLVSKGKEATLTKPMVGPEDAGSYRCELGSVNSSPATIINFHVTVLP

Q130A Izumo1_(22-254) = Q130A Izumo1_(22-254) (human, UniProt Q8IYV9-1 22-254, Q130A); assay: BLI
Sequence of Q130A Izumo1_(22-254) (Q8IYV9 22-254 Q130A): as the sequence (Q8IYV9 22-254 E71A) above, with A50E, Q109A counted along it

R160E Izumo1_(22-254) = R160E Izumo1_(22-254) (human, UniProt Q8IYV9-1 22-254, R160E); assay: BLI
Sequence of R160E Izumo1_(22-254) (Q8IYV9 22-254 R160E): as the sequence (Q8IYV9 22-254 E71A) above, with A50E, R139E counted along it

D72A Izumo1_(22-254) = D72A Izumo1_(22-254) (human, UniProt Q8IYV9-1 22-254, D72A); assay: BLI
Sequence of D72A Izumo1_(22-254) (Q8IYV9 22-254 D72A): as the sequence (Q8IYV9 22-254 E71A) above, with A50E, D51A counted along it

H157A Izumo1_(22-254) = H157A Izumo1_(22-254) (human, UniProt Q8IYV9-1 22-254, H157A); assay: BLI
Sequence of H157A Izumo1_(22-254) (Q8IYV9 22-254 H157A): as the sequence (Q8IYV9 22-254 E71A) above, with A50E, H136A counted along it

R160A Izumo1_(22-254) = R160A Izumo1_(22-254) (human, UniProt Q8IYV9-1 22-254, R160A); assay: BLI
Sequence of R160A Izumo1_(22-254) (Q8IYV9 22-254 R160A): as the sequence (Q8IYV9 22-254 E71A) above, with A50E, R139A counted along it

[2] = molecular target: T1, human Izumo1_(22-254), wild type; assay: SPR

T1 sequence (Q8IYV9 22-254): as the sequence (Q8IYV9 22-254 E71A) above, with A50E counted along it
Sequence of E71K Izumo1_(22-254) (Q8IYV9 22-254 E71K): as the sequence (Q8IYV9 22-254 E71A) above, with A50K counted along it

Kd [1]: 681 nM | koff [1]: 0.0247 s⁻¹ | kon [1]: 37000 M⁻¹ s⁻¹
B1: E45A Juno_(20-228) (domain or fragment, human, UniProt A6ND01-1 20-228, looked up)
chain: GDELLNICMNAKHHKRVPSPEDKLYAECIPWKDNACCTLTTSWEAHLDVSPLYNFSLFHCGLLMPGCRKHFIQAICFYECSPNLGPWIQPVGSLGWEVAPSGQGERVVNVPLCQEDCEEWWEDCRMSYTCKSNWRGGWDWSQGKNRCPKGAQCLPFSHYFPTPADLCEKTWSNSFKASPERRNSGRCLQKWFEPAQGNPNVAVARLFAS
modifications: biotinylated with the EZ link sulfo-NHS-LC-biotinylation kit (BLI)

Kd [1]: 2800 nM | koff [1]: 0.0624 s⁻¹ | kon [1]: 23000 M⁻¹ s⁻¹
B2: E45K Juno_(20-228) (domain or fragment, human, UniProt A6ND01-1 20-228, looked up)
chain: B1 chain with A26K
modifications: biotinylated with the EZ link sulfo-NHS-LC-biotinylation kit (in the BLI assay only)

Kd [1]: 97 nM | koff [1]: 0.0133 s⁻¹ | kon [1]: 138000 M⁻¹ s⁻¹
B3: K163A Juno_(20-228) (domain or fragment, human, UniProt A6ND01-1 20-228, looked up)
chain: B1 chain with A26E, K144A
modifications: biotinylated with the EZ link sulfo-NHS-LC-biotinylation kit (BLI)

Kd [1]: 134 nM | koff [1]: 0.0242 s⁻¹ | kon [1]: 181000 M⁻¹ s⁻¹
B4: K163E Juno_(20-228) (domain or fragment, human, UniProt A6ND01-1 20-228, looked up)
chain: B1 chain with A26E, K144E
modifications: biotinylated with the EZ link sulfo-NHS-LC-biotinylation kit (in the BLI assay only)

Kd [1]: 361 nM | koff [1]: 0.0412 s⁻¹ | kon [1]: 114000 M⁻¹ s⁻¹
B5: W62A Juno_(20-228) (domain or fragment, human, UniProt A6ND01-1 20-228, looked up)
chain: B1 chain with A26E, W43A
modifications: biotinylated with the EZ link sulfo-NHS-LC-biotinylation kit (BLI)

Kd [1]: 9100 nM | koff [1]: 0.349 s⁻¹ | kon [1]: 40000 M⁻¹ s⁻¹
B6: L81A Juno_(20-228) (domain or fragment, human, UniProt A6ND01-1 20-228, looked up)
chain: B1 chain with A26E, L62A
modifications: biotinylated with the EZ link sulfo-NHS-LC-biotinylation kit (BLI)

Kd (E71K Izumo1_(22-254)): 119 nM | koff (E71K Izumo1_(22-254)): 0.0195 s⁻¹ | kon (E71K Izumo1_(22-254)): 165000 M⁻¹ s⁻¹ | Kd [1]: 59 nM | koff [1]: 0.0067 s⁻¹ | kon [1]: 115000 M⁻¹ s⁻¹ | Kd (E71A Izumo1_(22-254)): 96 nM | koff (E71A Izumo1_(22-254)): 0.0137 s⁻¹ | kon (E71A Izumo1_(22-254)): 143000 M⁻¹ s⁻¹ | Kd (Q130A Izumo1_(22-254)): 56 nM | koff (Q130A Izumo1_(22-254)): 0.0068 s⁻¹ | kon (Q130A Izumo1_(22-254)): 127000 M⁻¹ s⁻¹ | Kd (R160E Izumo1_(22-254)): 2200 nM | koff (R160E Izumo1_(22-254)): 0.0512 s⁻¹ | kon (R160E Izumo1_(22-254)): 32000 M⁻¹ s⁻¹ | Kd (D72A Izumo1_(22-254)): 71 nM | koff (D72A Izumo1_(22-254)): 0.0126 s⁻¹ | kon (D72A Izumo1_(22-254)): 178000 M⁻¹ s⁻¹ | Kd (H157A Izumo1_(22-254)): 1800 nM | koff (H157A Izumo1_(22-254)): 0.079 s⁻¹ | kon (H157A Izumo1_(22-254)): 51000 M⁻¹ s⁻¹ | Kd (R160A Izumo1_(22-254)): 730 nM | koff (R160A Izumo1_(22-254)): 0.0563 s⁻¹ | kon (R160A Izumo1_(22-254)): 78000 M⁻¹ s⁻¹ | Kd [2]: 48 nM | koff [2]: 0.0194 s⁻¹ | kon [2]: 420000 M⁻¹ s⁻¹
B7: human Juno_(20-228), wild type (domain or fragment, UniProt A6ND01-1 20-228, looked up)
chain: B1 chain with A26E
modifications: biotinylated with the EZ link sulfo-NHS-LC-biotinylation kit (in the BLI assay only)
